Reference: US20150218227

Experiments:
[1] = molecular target: PPR10 ND variant motifs 6 and 7 (position 6, 1') changed to N6,D1' (Zea mays) (UniProt B8Y6I0); assay: EMSA; details: RNA 15 pM
[2] = molecular target: PPR10 NS variant motifs 6 and 7 (position 6, 1') changed to N6,S1' (Zea mays) (UniProt B8Y6I0); assay: EMSA; details: RNA 15 pM

Row | Substance | Kd [1] [nM] | Kd [2] [nM]
1 | atpH UU-substituted RNA | 3 | 20
2 | atpH CC-substituted RNA | 17 | 9
